Assay results from patent publication US20250136673A1.

Molecular target: recombinant human VEGF (R&D Systems, 293-VE-010) (human) (UniProt P15692)
Experiment: Octet HTX biosensor kinetics; antibody at 10 ug/mL in 1x kinetics buffer; recombinant human VEGF 200 nM to 3.125 nM

Sequence of UniProt P15692 (P15692 other isoform, or with tags, fused parts or gaps limits assumed): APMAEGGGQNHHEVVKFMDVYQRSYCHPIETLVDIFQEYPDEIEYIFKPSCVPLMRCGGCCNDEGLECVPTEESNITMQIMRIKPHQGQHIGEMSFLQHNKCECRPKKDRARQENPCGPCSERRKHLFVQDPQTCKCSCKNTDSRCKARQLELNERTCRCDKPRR

- Kd: 0.229 nM
- koff: 7.77e-05 s⁻¹
- kon: 340000 M⁻¹ s⁻¹
Substance: mouse anti-human VEGF monoclonal antibody (anti-hVEGF MmAb; R&D Systems, MAB293-100)
